B1: Multiple coagulation factor deficiency protein 2 (Homo sapiens), Q8NI22 (parent)
chain: MTMRSLLRTPFLCGLLWAFCAPGARAEEPAASFSQPGSMGLDKNTVHDQEHIMEHLEGVINKPEAEMSPQELQLHYFKMHDYDGNNLLDGLELSTAITHVHKEEGSEQAPLMSEDELINIIDGVLRDDDKNNDGYIDYAEFAKSLQ
partner: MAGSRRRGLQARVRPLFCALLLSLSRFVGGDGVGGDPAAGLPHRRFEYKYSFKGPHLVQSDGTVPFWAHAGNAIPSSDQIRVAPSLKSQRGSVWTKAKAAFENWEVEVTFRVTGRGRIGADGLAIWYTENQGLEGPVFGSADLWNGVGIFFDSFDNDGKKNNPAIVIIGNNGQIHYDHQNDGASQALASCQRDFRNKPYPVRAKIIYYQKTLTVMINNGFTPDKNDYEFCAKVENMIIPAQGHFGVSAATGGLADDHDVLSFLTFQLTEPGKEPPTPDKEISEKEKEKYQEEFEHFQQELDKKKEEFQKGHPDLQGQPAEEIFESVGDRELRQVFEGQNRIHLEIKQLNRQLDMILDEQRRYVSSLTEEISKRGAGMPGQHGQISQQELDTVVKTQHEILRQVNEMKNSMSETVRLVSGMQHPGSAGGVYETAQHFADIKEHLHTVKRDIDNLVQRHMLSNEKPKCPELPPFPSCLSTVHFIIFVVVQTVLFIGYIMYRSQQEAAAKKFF

Variants of: B1
Settings: with lman1_chlae LMAN1, Q9TU32

effect of a mutation on the interaction | Variant
disrupting interaction strength | D129E
disrupting interaction strength | I136T
decreasing interaction strength | I136V
